In article PMC3742469:
Values joined by “and” are separate entries in the source; they are usually repeats but may differ in a detail not shown here. Equal values may be shown once.

Experiments:
[1] = biological target: respiratory chain complex IV, human fibroblasts (human (endogenous in fibroblasts)) (UniProt P13073); test: native gel or EMSA; clear native electrophoresis (CNE), 6-15% gradient gels, of digitonin-solubilised (4 g/g protein) mitochondria of human fibroblasts (control and patients) and ρ0 cells; western blot, in-gel activity staining, 2D CNE/SDS PAGE
[2] = biological target: respiratory chain complex IV, rat heart (rat (endogenous in rat heart mitochondria)) (UniProt P10888); test: native gel or EMSA; clear native electrophoresis (CNE), 6-15% gradient gels, of digitonin-solubilised (4 g/g protein) rat heart mitochondria; western blot, in-gel activity staining, 2D CNE/SDS PAGE and CNE/CNECBG
[3] = biological target: CV lacking the mtDNA-coded subunits (ρ0 cells) (human (endogenous in 143B TK- ρ0 cells)) (UniProt P25705); test: native gel or EMSA; clear native electrophoresis (CNE), 6-15% gradient gels, of digitonin-solubilised (4 g/g protein) mitochondria of human fibroblasts (control and patients) and ρ0 cells; western blot, in-gel activity staining, 2D CNE/SDS PAGE
[4] = biological target: ATP synthase (complex V), human fibroblasts (human (endogenous in fibroblasts)) (UniProt P25705); test: as above

Question: For “respiratory chain complex IV, human fibroblasts (from UniProt P13073 23-169; P00395 1-513)”, which stoichiometry N [1] is on record?
Answer: The stoichiometry N was 2.

Question: Which stoichiometry N [2] does the source give for “respiratory chain complex IV, rat heart (from UniProt P10888 23-169; P05503 1-514)” here?
Answer: Its stoichiometry N is 2.

Question: “CV lacking the mtDNA-coded subunits (ρ0 cells) (from UniProt P25705 44-553; P06576 48-529; P36542 26-298) (complex)” was tested. Which stoichiometry N [3] did it give?
Answer: The stoichiometry N was 2 and 4.

Question: For “ATP synthase (complex V), human fibroblasts (from UniProt P25705 44-553; P06576 48-529; P36542 26-298; P00846 1-226; P03928 1-68)”, which stoichiometry N [4] is on record?
Answer: Its stoichiometry N is 2 and 4.
